Measurements published in article PMC2995471, “Identification of amino acid residues in protein SRP72 required for binding to a kinked 5e motif of the human signal recognition particle RNA”.
Positions count from the first letter of the chain named.

Key:
Assay in all cases: Ni-NTA magnetic bead pull-down; EMSA: 50 mM Tris-HCl pH 7.9, 300 mM KOAc, 5 mM MgCl2, 16% glycerol, 10 min 37 C; bead pull-down: 82.5 ng 5e RNA, 0.056-1.8 uM protein, eluted with 250 mM imidazole (binding buffer not given, as in ref 16)
[1] = molecular target: T1, 72k (human, UniProt O76094 545-590); conditions: protein: recombinant; tags: His6; hairpin with 11-nt 5e internal motif (K-turn)
T1 chain: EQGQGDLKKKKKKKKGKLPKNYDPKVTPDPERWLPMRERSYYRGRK

[2] = molecular target: T2, 72h 587-RG-588 to AA (human, UniProt O76094 531-590, R587A;G588A); conditions: protein: recombinant; tags: His6; hairpin with 11-nt 5e internal motif (K-turn)
T2 sequence: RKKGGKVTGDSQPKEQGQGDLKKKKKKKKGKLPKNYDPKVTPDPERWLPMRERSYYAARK

[3] = molecular target: T3, 72h 583-RS-584 to AA (human, UniProt O76094 531-590, R583A;S584A); conditions: protein: recombinant; tags: His6; hairpin with 11-nt 5e internal motif (K-turn)
T3 sequence: T2 sequence with R53A, S54A, A57R, A58G

[4] = molecular target: T4, 72h (human, UniProt O76094 531-590); conditions: protein: recombinant; tags: His6; hairpin with 11-nt 5e internal motif (K-turn)
T4 sequence: T2 sequence with A57R, A58G

[5] = molecular target: T5, 72g (human, UniProt O76094 531-585); conditions: protein: recombinant; tags: N-terminal His6; hairpin with 11-nt 5e internal motif (K-turn)
T5 sequence: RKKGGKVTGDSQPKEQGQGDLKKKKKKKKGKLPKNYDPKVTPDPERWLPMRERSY

[6] = molecular target: T6, 72j (human, UniProt O76094 541-590); conditions: protein: recombinant; tags: His6; hairpin with 11-nt 5e internal motif (K-turn)
T6 chain: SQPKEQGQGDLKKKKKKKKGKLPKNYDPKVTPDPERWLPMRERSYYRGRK

[7] = molecular target: T7, 72h 577-WL-578 to AA (human, UniProt O76094 531-590, W577A;L578A); conditions: protein: recombinant; tags: His6; hairpin with 11-nt 5e internal motif (K-turn)
T7 sequence: T2 sequence with W47A, L48A, A57R, A58G

[8] = molecular target: T8, 72e (human, UniProt O76094 531-617); conditions: protein: recombinant; tags: N-terminal His6; hairpin with 11-nt 5e internal motif (K-turn)
T8 sequence: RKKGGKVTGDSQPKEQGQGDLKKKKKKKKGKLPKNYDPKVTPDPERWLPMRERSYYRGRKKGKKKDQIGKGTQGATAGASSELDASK

[9] = molecular target: T9, 72h 589-RK-590 to AA (human, UniProt O76094 531-590, R589A;K590A); conditions: protein: recombinant; tags: His6; hairpin with 11-nt 5e internal motif (K-turn)
T9 sequence: T2 sequence with A57R, A58G, R59A, K60A

[10] = molecular target: T10, 72f (human, UniProt O76094 531-587); conditions: protein: recombinant; tags: N-terminal His6; hairpin with 11-nt 5e internal motif (K-turn)
T10 sequence: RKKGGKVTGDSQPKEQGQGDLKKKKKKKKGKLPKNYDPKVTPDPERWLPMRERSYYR

[11] = molecular target: T11, 72h del 555-KK-556 (human, UniProt O76094 531-590, del555-556); conditions: protein: recombinant; tags: His6; hairpin with 11-nt 5e internal motif (K-turn)
T11 sequence: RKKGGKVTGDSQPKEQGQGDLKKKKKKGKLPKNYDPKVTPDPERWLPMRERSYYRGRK

[12] = molecular target: T12, 72h 579-PM-580 to AA (human, UniProt O76094 531-590, P579A;M580A); conditions: protein: recombinant; tags: His6; hairpin with 11-nt 5e internal motif (K-turn)
T12 sequence: T2 sequence with P49A, M50A, A57R, A58G

[13] = molecular target: T13, 72h 585-YY-586 to AA (human, UniProt O76094 531-590, Y585A;Y586A); conditions: protein: recombinant; tags: His6; hairpin with 11-nt 5e internal motif (K-turn)
T13 sequence: T2 sequence with Y55A, Y56A, A57R, A58G

[14] = molecular target: T14, 72h P579A (human, UniProt O76094 531-590, P579A); conditions: protein: recombinant; tags: His6; hairpin with 11-nt 5e internal motif (K-turn)
T14 sequence: T2 sequence with P49A, A57R, A58G

[15] = molecular target: T15, 72h 581-RE-582 to AA (human, UniProt O76094 531-590, R581A;E582A); conditions: protein: recombinant; tags: His6; hairpin with 11-nt 5e internal motif (K-turn)
T15 sequence: T2 sequence with R51A, E52A, A57R, A58G

[16] = molecular target: T16, 72h M580A (human, UniProt O76094 531-590, M580A); conditions: protein: recombinant; tags: His6; hairpin with 11-nt 5e internal motif (K-turn)
T16 sequence: T2 sequence with M50A, A57R, A58G

B1: 5e SRP RNA (structured_RNA)
RNA: GGUCCGGGUGUCCGCACUAGGGAGCUAGUGGGAUCGCGCCUGGAUC
**Q.** Does B1 bind [1]?
**A.** Result: binds

**Q.** Does B1 bind [2]?
**A.** Result: binds

**Q.** Does B1 bind [3]?
**A.** Result: no binding

**Q.** Does B1 bind [4]?
**A.** Result: binds

**Q.** Does B1 bind [5]?
**A.** Result: no binding

**Q.** Does B1 bind [6]?
**A.** Result: binds

**Q.** Does B1 bind [7]?
**A.** Result: no binding

**Q.** Does B1 bind [8]?
**A.** Result: binds

**Q.** Does B1 bind [9]?
**A.** Result: binds

**Q.** Does B1 bind [10]?
**A.** Result: binds

**Q.** And the binding signal [11]?
**A.** The binding signal was 46 ± 12 % of wild-type binding.

**Q.** And the binding signal [12]?
**A.** The binding signal was 14 ± 9 % of wild-type binding.

**Q.** And the binding signal [13]?
**A.** Its binding signal is 60 ± 3 % of wild-type binding.

**Q.** What about the binding signal [14] of the same binder?
**A.** Its binding signal is 26 ± 1 % of wild-type binding.

**Q.** And the binding signal [15]?
**A.** The binding signal was 69 ± 14 % of wild-type binding.

**Q.** And the binding signal [16]?
**A.** The binding signal was 100 ± 4 % of wild-type binding.
